The record followed here is paper PMC10877131 (JHEP Reports, 2024).

The data set concerns the molecule itself. Briefly: immunoblot. For orientation: A western blot detects proteins with antibodies after separation by electrophoresis.

B1: Thrombospondin-2 (THBS2), overexpressed in LX-2 cells, in conditioned media (natural protein)
chain: not shown
As for B1, the stoichiometry N (commonly a count of units in the complex or per binding partner) worked out at 2.
